B1: Tensin-3 (Homo sapiens), Q68CZ2 (parent)
chain: MEEGHGLDLTYITERIIAVSFPAGCSEESYLHNLQEVTRMLKSKHGDNYLVLNLSEKRYDLTKLNPKIMDVGWPELHAPPLDKMCTICKAQESWLNSNLQHVVVIHCRGGKGRIGVVISSYMHFTNVSASADQALDRFAMKKFYDDKVSALMQPSQKRYVQFLSGLLSGSVKMNASPLFLHFVILHGTPNFDTGGVCRPFLKLYQAMQPVYTSGIYNVGPENPSRICIVIEPAQLLKGDVMVKCYHKKYRSATRDVIFRLQFHTGAVQGYGLVFGKEDLDNASKDDRFPDYGKVELVFSATPEKIQGSEHLYNDHGVIVDYNTTDPLIRWDSYENLSADGEVLHTQGPVDGSLYAKVRKKSSSDPGIPGGPQAIPATNSPDHSDHTLSVSSDSGHSTASARTDKTEERLAPGTRRGLSAQEKAELDQLLSGFGLEDPGSSLKEMTDARSKYSGTRHVVPAQVHVNGDAALKDRETDILDDEMPHHDLHSVDSLGTLSSSEGPQSAHLGPFTCHKSSQNSLLSDGFGSNVGEDPQGTLVPDLGLGMDGPYERERTFGSREPKQPQPLLRKPSVSAQMQAYGQSSYSTQTWVRQQQMVVAHQYSFAPDGEARLVSRCPADNPGLVQAQPRVPLTPTRGTSSRVAVQRGVGSGPHPPDTQQPSPSKAFKPRFPGDQVVNGAGPELSTGPSPGSPTLDIDQSIEQLNRLILELDPTFEPIPTHMNALGSQANGSVSPDSVGGGLRASSRLPDTGEGPSRATGRQGSSAEQPLGGRLRKLSLGQYDNDAGGQLPFSKCAWGKAGVDYAPNLPPFPSPADVKETMTPGYPQDLDIIDGRILSSKESMCSTPAFPVSPETPYVKTALRHPPFSPPEPPLSSPASQHKGGREPRSCPETLTHAVGMSESPIGPKSTMLRADASSTPSFQQAFASSCTISSNGPGQRRESSSSAERQWVESSPKPMVSLLGSGRPTGSPLSAEFSGTRKDSPVLSCFPPSELQAPFHSHELSLAEPPDSLAPPSSQAFLGFGTAPVGSGLPPEEDLGALLANSHGASPTPSIPLTATGAADNGFLSHNFLTVAPGHSSHHSPGLQGQGVTLPGQPPLPEKKRASEGDRSLGSVSPSSSGFSSPHSGSTISIPFPNVLPDFSKASEAASPLPDSPGDKLVIVKFVQDTSKFWYKADISREQAIAMLKDKEPGSFIVRDSHSFRGAYGLAMKVATPPPSVLQLNKKAGDLANELVRHFLIECTPKGVRLKGCSNEPYFGSLTALVCQHSITPLALPCKLLIPERDPLEEIAESSPQTAANSAAELLKQGAACNVWYLNSVEMESLTGHQAIQKALSITLVQEPPPVSTVVHFKVSAQGITLTDNQRKLFFRRHYPVNSVIFCALDPQDRKWIKDGPSSKVFGFVARKQGSATDNVCHLFAEHDPEQPASAIVNFVSKVMIGSPKKV
partner: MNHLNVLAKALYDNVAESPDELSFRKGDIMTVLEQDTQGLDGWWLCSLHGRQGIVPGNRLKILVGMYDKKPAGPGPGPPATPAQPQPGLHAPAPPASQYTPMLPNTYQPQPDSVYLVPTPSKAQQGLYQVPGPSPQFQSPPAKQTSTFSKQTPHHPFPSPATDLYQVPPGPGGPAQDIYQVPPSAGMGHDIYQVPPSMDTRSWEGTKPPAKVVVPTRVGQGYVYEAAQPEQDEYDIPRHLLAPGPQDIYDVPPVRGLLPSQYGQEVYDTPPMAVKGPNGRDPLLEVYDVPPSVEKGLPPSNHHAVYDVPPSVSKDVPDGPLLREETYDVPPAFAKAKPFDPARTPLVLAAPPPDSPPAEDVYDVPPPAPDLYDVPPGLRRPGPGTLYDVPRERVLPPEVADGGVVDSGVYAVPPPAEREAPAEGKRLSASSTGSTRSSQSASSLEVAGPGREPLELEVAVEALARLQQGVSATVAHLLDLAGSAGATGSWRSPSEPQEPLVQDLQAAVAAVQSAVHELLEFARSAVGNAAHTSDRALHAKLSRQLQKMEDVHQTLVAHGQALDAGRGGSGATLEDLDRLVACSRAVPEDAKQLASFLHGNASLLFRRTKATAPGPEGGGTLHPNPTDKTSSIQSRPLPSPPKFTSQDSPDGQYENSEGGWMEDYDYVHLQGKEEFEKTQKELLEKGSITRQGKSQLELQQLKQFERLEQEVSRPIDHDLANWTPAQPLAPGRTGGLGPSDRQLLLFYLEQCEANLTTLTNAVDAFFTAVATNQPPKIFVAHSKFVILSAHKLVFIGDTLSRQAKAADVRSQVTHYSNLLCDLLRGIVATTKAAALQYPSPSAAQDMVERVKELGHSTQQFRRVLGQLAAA

Variants of: B1
Conditions: with bcar1_human BCAR1, P56945

Row | Variant | effect of a mutation on the interaction
1 | Y1173F;Y1206F | decreasing interaction

— IntAct's records for PubMed 19732724
